Assay results as given in article PMC9793311, “Negative cooperativity underlies dynamic assembly of the Par complex regulators Cdc42 and Par-3” (The Journal of Biological Chemistry, 2022).

T1: Par complex (Drosophila melanogaster, UniProt O97111 1-351; A1Z9X0 1-606)
T1 construct: atypical PKC (aPKC), Drosophila melanogaster, residues 1-606, from pCMV aPKC; also called Par-6/aPKC; intact Par complex
T1 sequence (looked up) 1: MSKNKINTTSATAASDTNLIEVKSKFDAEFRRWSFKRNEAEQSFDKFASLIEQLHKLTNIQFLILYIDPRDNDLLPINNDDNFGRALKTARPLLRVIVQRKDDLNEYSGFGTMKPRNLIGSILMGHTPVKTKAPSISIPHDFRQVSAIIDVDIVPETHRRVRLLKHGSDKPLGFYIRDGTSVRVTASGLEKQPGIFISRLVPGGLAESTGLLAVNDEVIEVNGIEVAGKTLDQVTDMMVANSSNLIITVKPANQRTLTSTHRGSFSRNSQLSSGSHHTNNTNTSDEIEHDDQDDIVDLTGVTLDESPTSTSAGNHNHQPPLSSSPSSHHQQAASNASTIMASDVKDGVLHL
T1 sequence (looked up) 2: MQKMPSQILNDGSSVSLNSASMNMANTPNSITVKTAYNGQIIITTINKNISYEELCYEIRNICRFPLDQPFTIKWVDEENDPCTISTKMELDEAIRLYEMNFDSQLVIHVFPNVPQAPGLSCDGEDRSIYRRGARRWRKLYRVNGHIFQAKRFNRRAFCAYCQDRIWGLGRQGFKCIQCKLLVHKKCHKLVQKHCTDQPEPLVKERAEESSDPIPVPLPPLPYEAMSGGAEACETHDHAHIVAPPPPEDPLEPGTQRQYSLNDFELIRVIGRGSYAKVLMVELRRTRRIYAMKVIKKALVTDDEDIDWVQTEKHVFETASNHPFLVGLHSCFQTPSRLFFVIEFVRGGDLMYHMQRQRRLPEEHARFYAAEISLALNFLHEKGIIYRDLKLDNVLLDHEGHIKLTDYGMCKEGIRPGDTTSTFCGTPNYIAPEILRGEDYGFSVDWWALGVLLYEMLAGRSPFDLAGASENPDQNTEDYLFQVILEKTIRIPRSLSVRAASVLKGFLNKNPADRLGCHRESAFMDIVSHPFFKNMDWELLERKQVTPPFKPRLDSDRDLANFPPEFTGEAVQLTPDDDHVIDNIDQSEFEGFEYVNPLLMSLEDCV

B1: GST-Cdc42^Q61L (natural protein)
chain: not shown
notes: Cdc42, Drosophila melanogaster, residues 1-191 with Q61L, from pGEX; Nucleotide state is not described; Q61L is called constitutively active; also called GST-fused Cdc42Q61L; solid phase Cdc42^Q61L; source: E. coli BL21-DE3, lysate adsorbed to glutathione resin and washed; not shown: GST, N-terminal, kept

Key:
Conditions in all cases: both partners purified
Par complex [1] = target: T1, Par complex; assay: pull-down; GST-fused protein on glutathione resin (from bacterial lysate, washed 4x); soluble purified proteins added, 60 min at room temperature; 20 mM Hepes pH 7.5, 100 mM NaCl, 5 mM MgCl2, 0.5% Tween-20, 1 mM DTT, 200 uM ATP; Coomassie-stained gel
Par complex [2] = target: T1, Par complex; assay: supernatant depletion; MBP-Par-3 PDZ1-APM on amylose resin (ligand), soluble Par complex (receptor), 10 min at room temperature; 20 mM Hepes pH 7.5, 100 mM NaCl, 5 mM MgCl2, 0.5% Tween-20, 1 mM DTT, 200 uM ATP; KD from the fraction depleted at one dilution, in sextuplicate
GST-Cdc42^Q61L = target: B1; assay: supernatant depletion; Cdc42 with Par-6 CRIB-PDZ (Figure S1); the text does not say which of the two was on the resin; buffer as for the other supernatant depletion assays
Sequence of GST-Cdc42^Q61L (P40793 whole entry Q61L): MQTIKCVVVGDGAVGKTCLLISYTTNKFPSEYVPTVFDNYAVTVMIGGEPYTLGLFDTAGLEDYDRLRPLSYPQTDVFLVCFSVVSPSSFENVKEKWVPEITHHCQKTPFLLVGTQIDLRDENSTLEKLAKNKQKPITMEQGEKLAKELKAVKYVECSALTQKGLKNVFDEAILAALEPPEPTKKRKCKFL

Par complex [3] = target: T1, Par complex; assay: supernatant depletion; GST-Cdc42^Q61L on GSH resin (ligand), soluble Par complex (receptor), 60 min at room temperature; 20 mM Hepes pH 7.5, 100 mM NaCl, 5 mM MgCl2, 0.5% Tween-20, 1 mM DTT, 200 uM ATP; KD from the fraction depleted at one dilution, in sextuplicate

binding result (Par complex [1])	Binder	also measured
binds	GST-Par-3 PDZ3 (domain or fragment, Drosophila melanogaster, UniProt O96782 616-741, looked up, Par-3 (Bazooka), Drosophila melanogaster, PDZ3, residues 616-741, from pGEX; source: E. coli BL21-DE3, lysate adsorbed to glutathione resin and washed; not shown: GST, N-terminal, kept) HSREELTLHIPVHDTEKAGLGVSVKGKTCSNLNASGSSASSGSNGLMKHDGDLGIFVKNVIHGGAASRDGRLRMNDQLLSVNGVSLRGQNNAEAMETLRRAMVNTPGKHPGTITLLVGRKILRSAS	
binds	His-Par-3 BR-PDZ2 (domain or fragment, Drosophila melanogaster, UniProt O96782 426-533, looked up, Par-3 (Bazooka), Drosophila melanogaster, basic region and PDZ2, residues 426-533, from pET19; source: E. coli BL21-DE3, His-purified) PVGTSLQVANTRKLGRKIQIMLKKGPNGLGFSVTTRDNPAGAHCPIYIKNILPRGAAIEDGRLKPGDRLLEVDGTPMTGKTQTDVVAILRGMPAGATVRIVVSRQQEL	
binds	MBP-Par-3 PDZ1-APM ΔPDZ3 (domain or fragment, Drosophila melanogaster, UniProt O96782 309-987, looked up, Par-3 (Bazooka), Drosophila melanogaster, residues 309-987 with 616-741 deleted, from pMAL Par-3 309-987 Δ616-741-His; source: E. coli BL21-DE3, His-purified) DGEMLLIINEYGSPLGLTALPDKEHGGGLLVQHVEPGSRAERGQLRRDDRILEINGIKLIGLTESQVQEQLRRALESSELRVRVLRGDRNRRQQRDSKVADMVEVATVSPTRKPHAAPVGTSLQVANTRKLGRKIQIMLKKGPNGLGFSVTTRDNPAGAHCPIYIKNILPRGAAIEDGRLKPGDRLLEVDGTPMTGKTQTDVVAILRGMPAGATVRIVVSRQQELAEQADQPAEKSAGVAVAPSVAPPAVPAAAAPAPPIPVQKSSSARSLFTHQQQSQLNESQHFIDAGSESAASNDSLPPSSNSWSSDILDHSNSHSHSHSNSSGGSNSNGSGNNNNSSSNASDNSGATVIYLSPEKREQRCNGGGGGGSAGNEMNRWSNPVLDRLTGGICSSNSAQPSSQQSHQQQPHPSQQQQQQRRLPAAPVCSSAALRNESYYMATNDNWSPAQMHLMTAHGNTALLIEDDAEPMSPTLPARPHDGQHCNTSSANPSQNLAVGNQGPPINTVPGTPSTSSNFDATYSSQLSLETNSGVEHFSRDALGRRSISEKHHA	
	MBP-Par-3 PDZ1-APM (domain or fragment, Drosophila melanogaster, UniProt O96782 309-987, looked up, Par-3 (Bazooka), Drosophila melanogaster, residues 309-987 (PDZ1 to the aPKC phosphorylation motif), from pMAL Par-3 309-987-His; also called MBP-Par-3 PDZ1-APM-His; Bazooka; source: E. coli BL21-DE3; His-purified (soluble phase) or lysate adsorbed to amylose resin and washed (solid phase); not shown: MBP, N-terminal, kept) DGEMLLIINEYGSPLGLTALPDKEHGGGLLVQHVEPGSRAERGQLRRDDRILEINGIKLIGLTESQVQEQLRRALESSELRVRVLRGDRNRRQQRDSKVADMVEVATVSPTRKPHAAPVGTSLQVANTRKLGRKIQIMLKKGPNGLGFSVTTRDNPAGAHCPIYIKNILPRGAAIEDGRLKPGDRLLEVDGTPMTGKTQTDVVAILRGMPAGATVRIVVSRQQELAEQADQPAEKSAGVAVAPSVAPPAVPAAAAPAPPIPVQKSSSARSLFTHQQQSQLNESQHFIDAGSESAASNDSLPPSSNSWHSREELTLHIPVHDTEKAGLGVSVKGKTCSNLNASGSSASSGSNGLMKHDGDLGIFVKNVIHGGAASRDGRLRMNDQLLSVNGVSLRGQNNAEAMETLRRAMVNTPGKHPGTITLLVGRKILRSASSSDILDHSNSHSHSHSNSSGGSNSNGSGNNNNSSSNASDNSGATVIYLSPEKREQRCNGGGGGGSAGNEMNRWSNPVLDRLTGGICSSNSAQPSSQQSHQQQPHPSQQQQQQRRLPAAPVCSSAALRNESYYMATNDNWSPAQMHLMTAHGNTALLIEDDAEPMSPTLPARPHDGQHCNTSSANPSQNLAVGNQGPPINTVPGTPSTSSNFDATYSSQLSLETNSGVEHFSRDALGRRSISEKHHA	Kd (Par complex [2]): 600 nM
binds	MBP-Par-3 PDZ1-APM ΔPDZ1 (domain or fragment, Drosophila melanogaster, UniProt O96782 393-987, looked up, Par-3 (Bazooka), Drosophila melanogaster, residues 393-987, from pMAL Par-3 393-987-His; source: E. coli BL21-DE3, His-purified) LRGDRNRRQQRDSKVADMVEVATVSPTRKPHAAPVGTSLQVANTRKLGRKIQIMLKKGPNGLGFSVTTRDNPAGAHCPIYIKNILPRGAAIEDGRLKPGDRLLEVDGTPMTGKTQTDVVAILRGMPAGATVRIVVSRQQELAEQADQPAEKSAGVAVAPSVAPPAVPAAAAPAPPIPVQKSSSARSLFTHQQQSQLNESQHFIDAGSESAASNDSLPPSSNSWHSREELTLHIPVHDTEKAGLGVSVKGKTCSNLNASGSSASSGSNGLMKHDGDLGIFVKNVIHGGAASRDGRLRMNDQLLSVNGVSLRGQNNAEAMETLRRAMVNTPGKHPGTITLLVGRKILRSASSSDILDHSNSHSHSHSNSSGGSNSNGSGNNNNSSSNASDNSGATVIYLSPEKREQRCNGGGGGGSAGNEMNRWSNPVLDRLTGGICSSNSAQPSSQQSHQQQPHPSQQQQQQRRLPAAPVCSSAALRNESYYMATNDNWSPAQMHLMTAHGNTALLIEDDAEPMSPTLPARPHDGQHCNTSSANPSQNLAVGNQGPPINTVPGTPSTSSNFDATYSSQLSLETNSGVEHFSRDALGRRSISEKHHA	
binds	His-Par-3 PDZ2 (domain or fragment, Drosophila melanogaster, UniProt O96782 444-533, looked up, Par-3 (Bazooka), Drosophila melanogaster, PDZ2, residues 444-533, from pET19; source: E. coli BL21-DE3, His-purified) QIMLKKGPNGLGFSVTTRDNPAGAHCPIYIKNILPRGAAIEDGRLKPGDRLLEVDGTPMTGKTQTDVVAILRGMPAGATVRIVVSRQQEL	
	His-Par-6 CRIB-PDZ (domain or fragment, Drosophila melanogaster, UniProt O97111 130-255, looked up, Par-6, Drosophila melanogaster, CRIB-PDZ, residues 130-255, from pBH; chosen because the methods name GST-Cdc42^Q61L as the solid phase; source: E. coli BL21-DE3, His-purified) KTKAPSISIPHDFRQVSAIIDVDIVPETHRRVRLLKHGSDKPLGFYIRDGTSVRVTASGLEKQPGIFISRLVPGGLAESTGLLAVNDEVIEVNGIEVAGKTLDQVTDMMVANSSNLIITVKPANQR	Kd (GST-Cdc42^Q61L): 2300 nM
	B1	Kd (Par complex [3]): 5.4 µM
